# Article PMC9940316 (2023)
# B1: FcγRIIa (receptor)
# chain: QAAAPPKAVLKLEPPWINVLQEDSVTLTCQGARSPESDSIQWFHNGNLIPTHTQPSYRFKANNNDSGEYTCQTGQTSLSDPVHLTVLSEWLVLQTPHLEFQEGETIMLRCHSWKDKPLVKVTFFQNGKSQKFSHLDPTFSIPQANHSHSGDYHCTGNIGYTLFSSKPVTITVQVPSMGSSSPMGIIVAVVIATAVAAIVAAVVALIYCRKKRISANSTDPVKAAQFEPPGRQMIAIRKRQLEETNNDYETADGGYMTLNPRAPTDDDKNIYLTLPPNDHVNSNN
# Molecular target: human plasma IgG1 (human, UniProt P01857 = IgG part)
# Experiment: SPR; pH 7
binder,measurement,value
B1,Kd,1.3 µM
